Reference: article PMC2783993 (Biotechnology progress, 2009)

Biological target: the molecule itself
Test: LC-MS

B1: bovine hemoglobin β globin chain (natural protein)
chain: not shown
- stoichiometry N: 2
